Data as given in the nanobody polyreactivity screen of Harvey et al. (2022).

Assay: yeast display, Sf9 membrane polyspecificity reagent, FACS + sequencing; frameworks hold sequencing errors
How it was run: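 A synthetic nanobody library was expressed on Saccharomyces cerevisiae BJ5465 by galactose induction for 36–48 hours. The library was stained for 1 hour at 4 °C with 10% biotinylated, detergent-solubilized Sf9 membrane reagent and enriched with streptavidin microbeads before FACS. Low and high (top ~1%) gates were set on anti-HA fluorescence for expression and streptavidin fluorescence for reagent binding, and each polyreactivity label reflects the gate of origin.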

Row | Sequence | polyreactivity (PSR sort gate)
1 | QVQLVESGGGLVQAGGSLRLSCAASGRIFPYNAMGWYRQAPGKERELVAAISGRGGSTYYADSVKGRFTISRDNAKNTVYLQMNSLKPEDTAVYYCAKRYVYPGAKHRFRGYDYWGQGTQVTVSS | high polyreactivity
2 | QVLLQESGGGLVQAGGSLRLGCAASGTISPAYYMGRNHQAPGKEREFVAAITYGTNTYYADSVKGRFTISRDNAKNTVYLQMNSLKPEDTAVYYCSATAGYNGAHDYWGQGTQVTVSS | low polyreactivity
3 | QVQLVESGGGLVQAGGSLRLRCAASGSTFGRYAKVWYRQAPGKEREFVAAISWSGGSTYYADSVKGRFTISRDNAKNTVYLQMNSLKPEDTAVYYCARYSWRGLAEFDSWGQGTQVTVSS | low polyreactivity
4 | QVQLVESGGGLVQAGGSLRLSCAASGRTFWSNAMGWYRQAPGKERELVAAISTGAGSTYYADSVKGRFTISRDNAKNTVYLQMNSLKPEDTAVYYCAAVYNGALYNYYYWGEGTQVTVSS | high polyreactivity
5 | QVQLVESGGGLVQAGGSLRLSCAASGSTFLTNAMGWYRQAPGKERELVAAIRTSGGSTYYADSVKGRFTSSRDNAKKTVYVLMNSLKPEDTAVYYCAASYRRRRFSEYYYWGQGTQVTVAS | high polyreactivity
6 | QVQIVESGGGLVQAGGSLRLSCAASGRIFFQYALGWYRQAPGKERELVAAIRYSGGSTYYADSVKGRFTISRDNAKNTVYLQMNSLKPEDTAVYYCAARYTRRHYDYWGQGTQVTVSS | high polyreactivity
7 | HVQLVESGGGLVQAGGSLRLSCAASGIIFWTYTMGWYRQAPGKERELVGAISSGGSTKYADSVKGRFTISRDNAKNTVYLQMNSLKPADTAVYYCNAEFAPWGSAYGHDQYDYWGQGTQVTVSS | low polyreactivity
8 | QVQLVESGRGLVQAGVSLRLSCASSGSTFTLNVMGWYRKAPVKERELVAGFSKRGGNTYYADSVKGRFTISRDYAKNTVYLQMNRLKPEDTAVYFCAKRQGVGYGYYYLGQGTQVTVSS | high polyreactivity
9 | QVQLVESGGGLVQAGGSLRLSCAASGSIFGYNAMGWYRQAPGKERELVAAISYSGGRTYYADSVKGRFTISRDNAKHTVYFQKNRLKPEDTAVYYCAKYKVGYVPSGYRYDSWGQGTQVTVSS | high polyreactivity
10 | QVQLVESGGVLLQAGGSLRLTCAASGSIFQYNALVGYRQAPGKVREFVAAITRGDSTYYADSVKGRFTISRDNAKNTVYLQMNSLKADDTAVYYCAKRGWFYGGRDYWGQGTQVTVSS | high polyreactivity
11 | QVQLVESGGGLVQAGGSLRFSCAASGRTFYRNVMGWYRQAPGKERELVAVITSGGSTNYADSVKGRFTISRDNAQNTVYLQMNSLKPEDTAVYYCNTALSSRSNKMYYWGQGTQVTVSS | high polyreactivity
12 | QVQLVESGGGLVQAGGSLRLSCAASGFIFAGNAMGWYRQAPGKERELVAAISGSGGSTYYADSVKGRFTISRDNAKNTVYLQMNSLKPEDTAVYYCNAVYYRYYDVEGFDYWGQGTQVTVSS | high polyreactivity
13 | QVQLVESGGGLVQAGGSLRLSCAASGLTFRRYDMGWYRQAPGKERELVAAITGGGSTYYADSVKGRFTISRDNAKNTVYLQMNSLKPEDTAVYYCAAGTWYWSYAYDYWGQGTQVTVSS | high polyreactivity
14 | QVQLVESGGGLVQAGGSLRLSCAASGSILWLYVMGWYRQAPGKERELVATITSSGGSTYYADSVKGRFTISRDNAKNTVYLQKNSLKPEDTAVYYSAAQTYNSYDYWGQATQVTVSS | low polyreactivity
15 | QVQLVESGGGLVQGGGSLRLSCAASGRIFTFYAMGWSRPAPGKARELVASITGGGNTYYADSVKGRFTISRDNAKNTVNLQMNSLKPEDTAVYYCAADDGYRELDYWGQGTQVTVSS | low polyreactivity
16 | QVQLVESGGGLVQARGSLRLSCAASGSIFFPYAMGWYRQAPGKERELVAAIRYSAGSTYYADSVKGRFTISRDNAKNTVYLQMNSLKPEDTAVYYCNAGSSCWVSRIGYDYWGEGTQVTVSS | high polyreactivity
17 | QVQLVESGGGLVQAGVSLRLSCAASGRTFPRYAMGWYRQAPGKERELVASISYSGGSTYYADSVKVRFTISRDTAKNTVYLQLNSLKPEDTAVYYCARRGRTSFKYYYWGQGTQVTVSS | high polyreactivity
18 | QVQLVESAAGLVQAGGSLRLSCAASGGIFHGYAMGWYRHAPGKERELVAAISWSTGSTYYADSVKGRFTISRDNAKNTVYLQMNSLKPEDTAVYYCAARYLSGTSRYYYWGQGTQVTVSS | high polyreactivity
19 | QVQLVESGGGLVQAGGSLRLSCAASGRIFTAYTMGWYRQAPGKERELVAAISTSGTSTYYADSVKGRFTISRDNAKNTVYLQMNSLKPEDTAVYYCATDYYYYPHSQYDYWGQGTQVTVSS | low polyreactivity
20 | QVQLVESGGGLVQAGGSLRLSCAASGSIFADYAMGWYRQAPGKERELVAVISRRGGTTYYADSVKGRFTISRDNAKNTVYLQMNSLKPEDTAVYYCAARRSFNEYDYWGQGTQVTVSS | high polyreactivity
21 | QVQLVESGGGLVQAGGSLRLSCAASGGIFYYYAMGWYRQAPGKERELVAAISWSGGSTYYADSVKGRFTISRDNAKNTVYLQMNSLKPDDTAVYYCATYSDFHYAQLEYDYWGQGTQVTVSS | low polyreactivity
22 | QVQLVESGGGLVQAGGSLRLSCAASGSTFSGYDMGWYRQAPGKERELVAAISKSGGRTYYADSVKGRFTISRDNAKNTVYLQMKSLKPEDTAVYYCNTDSPYDTYYFLWWREDYYWGQGTQVTVSS | low polyreactivity
23 | QVQLVESGGGLVQAGGSLRLSCAASGSIFTLYTMGWYRQAPGKERELVAGISWRGGRTYYADSVKGRFTISRDNAKNTVYLQMNSLKPEDTAVYYCAAKWTPHIYTLYSWGQGTQVTVSS | high polyreactivity
24 | QVQLVESGGGLVQAGGSLRLSCAASGSIFVIYAMGWYRPAPGKERELVAAITGRGGRTYYADSVKGRFTISRDNAKNTVYLQMISLKPEDNAVYYCAADSVYTLGLKYDYWGHGTQVTVSS | high polyreactivity
25 | QVQLVESGGGLVQAGGSLRLSCAASGSIFVTYAMGLYRQAPGKERELVAAITSSDRTKYADSVKGRFTISRDNAKNTVYVQMHSLKPEDTAVYYGAKVVRTRYYGGYDYWGQVTQVTVSS | high polyreactivity
26 | QVQLVESGGGLVQARGSLRLSCAATGLTFYSNAMGWSRQAPGKERELVARISTGGSTYADSVKGRFTISRDNAKNTVYLQMNSLKPEDTAVYYCAKLPPRGIDDEYWGQGTQVTVSS | low polyreactivity
27 | QVQLVESVGGLVQAGGSLRLSCAASGTFSPYAMGWYRQAPGKERELVAVITSNTGRTYADSVKGRFTISRDNAKNSVYLQMNSLKPEDTAVYYCAARSTYRHWYRTGSRFDYWGQGTQVTVSS | low polyreactivity
28 | QVQLVESGGGLVQAGGSLPLSCAASGLTFYRYAMGWYREAPGKERELVAAISFSGGSTYYADSVKGRFTISRDIAKYTVYIQMNCLKPEDTAVYYCAASYQGRRYQDRYDYWGQGNQVTVSS | high polyreactivity
29 | QVQLVESGGGLVQAGGSLRLSSAASGSIFRYNAMGWYRQAPGKERELFAAISYRGGRTYYADSVKGRFTISRDNAKNTVYLQMNSLKPEDTAVYYCNADSIYSARGWLYGYWGQGTQVTVSS | low polyreactivity
30 | QVQLVESGGGLVQAGGSLRLSCAASGLTFPFYVMGWYRQAPGKERELVAAISASGASTYYADSVKGRFTISRDNAKNTVYLQMNSLKPEDTAVYYCAALGYGFSYRYDYWGQGTQVTVSS | high polyreactivity
